We go through two molecules from patent publication US20070166308A1 (Amgen, published 2007).

Bounds are passed on as bounds.

Assay [1] addresses T1, MAdCAM-IgG1 Fc fusion protein (human).
T1 construct: Expressed in CHO-DHFR cells; also called MAdCAM-IgFc; soluble MAdCAM (in the sandwich ELISA)
The assay is described as follows: MAdCAM-IgG1 Fc fusion / JY cell adhesion assay, mean IC50. On the procedure:
(§1) The cells were washed twice with RPMI 1640 media (Gibco) containing 2 mM L-glutamine (Gibco) by centrifugation (240 g), resuspending the final cell pellet at 2×10⁶ cells/mL in RPMI 1640 for Calcein AM loading. Calcein AM (Molecular Probes #C-3099) was added to the cells as a 1:200 dilution in DMSO (ca. final concentration 5 μM) and the cells protected from light during the course of the incubation (37° C. for 30 min). During this cell incubation step the antibodies to be tested, were diluted as follows: for single dose testing, the antibodies were made up to 3 μg/mL (1 μg/mL final) in 0.1 mg/mL BSA (Sigma#A3059) in PBS; for full IC₅₀ curves, the antibodies were diluted in 0.1 mg/mL BSA/PBS, with 3 μg/mL (1 μg/mL final) being the top concentration, then doubling dilutions (1:2 ratio) across the plate. The final well of the row was used for determining total binding, so 0.1 mg/ml BSA in PBS was used.
(§2) After blocking, the plate contents were flicked out and 50 μL of antibodies/controls were added to each well and the plate incubated at 37° C. for 20 min. During this time, Calcein-loaded JY cells were washed once with RPMI 1640 media containing 10% fetal bovine serum and once with 1 mg/mL BSA/PBS by centrifugation, resuspending the final cell pellet to 1×10⁶/mL in 1 mg/mL BSA/PBS. 100 μL of cells were added to each well of the U bottomed plate, the plate sealed, briefly centrifuged (1000 rpm for 2 min) and the plate then incubated at 37° C. for 45 min. At the end of this time, the plates were washed with a Skatron plate washer and fluorescence measured using a Wallac Victor² 1420 Multilabel Reader (excitation λ 485 nm, emission λ 535 nm count from top, 8 mm from bottom of plate, for 0.1 sec with normal emission aperture). For each antibody concentration, percent adhesion was expressed as a percentage of maximal fluorescence response in the absence of any antibody minus fluorescence associated with non-specific binding. The IC₅₀ value is defined as the anti-MAdCAM antibody concentration at which the adhesion response is decreased to 50% of the response in the absence of anti-MAdCAM antibody.

Assay [2] deals with T1, MAdCAM-IgG1 Fc fusion protein. The assay is described as follows: adhesion of calcein-loaded α4β7+ JY cells to coated MAdCAM-IgG1 Fc, blocked by antibody. On the procedure:
as §1
as §2, with “The IC₅₀ value is defined as the anti-MAdCAM antibody concentration at which the adhesion response is decreased to 50% of the response in the absence of anti-MAdCAM antibody.” left out

Assay [3] concerns the target Fibronectin cell binding fragment (110 Kd, Europa Bioproducts Ltd, Cat. No. UBF4215-18) (UniProt P02751-1 722-1635). The assay is described as follows: cell-based or functional assay.
Assay [4] deals with T2, VCAM (Panvera) (UniProt P19320 25-698, limits assumed).
T2 sequence (looked up): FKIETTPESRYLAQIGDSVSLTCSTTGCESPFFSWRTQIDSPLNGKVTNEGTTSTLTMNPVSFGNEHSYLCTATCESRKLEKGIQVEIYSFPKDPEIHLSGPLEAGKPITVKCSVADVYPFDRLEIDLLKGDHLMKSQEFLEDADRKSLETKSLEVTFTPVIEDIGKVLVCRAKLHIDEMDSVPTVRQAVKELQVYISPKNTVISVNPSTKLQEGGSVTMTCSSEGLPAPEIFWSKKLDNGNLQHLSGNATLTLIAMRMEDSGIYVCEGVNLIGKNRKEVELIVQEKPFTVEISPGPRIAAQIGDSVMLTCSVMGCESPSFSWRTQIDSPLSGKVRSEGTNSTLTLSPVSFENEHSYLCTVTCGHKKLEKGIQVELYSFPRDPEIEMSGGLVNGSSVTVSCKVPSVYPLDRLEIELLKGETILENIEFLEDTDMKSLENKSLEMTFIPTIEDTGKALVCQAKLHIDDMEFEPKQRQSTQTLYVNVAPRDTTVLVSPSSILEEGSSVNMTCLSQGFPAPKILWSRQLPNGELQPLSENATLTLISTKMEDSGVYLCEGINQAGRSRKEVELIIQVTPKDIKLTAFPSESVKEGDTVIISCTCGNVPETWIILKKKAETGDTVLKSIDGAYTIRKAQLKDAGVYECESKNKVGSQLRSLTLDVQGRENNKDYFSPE
The assay is described as follows: cell-based or functional assay.

T1 sequence (chain, as listed by the source limits assumed): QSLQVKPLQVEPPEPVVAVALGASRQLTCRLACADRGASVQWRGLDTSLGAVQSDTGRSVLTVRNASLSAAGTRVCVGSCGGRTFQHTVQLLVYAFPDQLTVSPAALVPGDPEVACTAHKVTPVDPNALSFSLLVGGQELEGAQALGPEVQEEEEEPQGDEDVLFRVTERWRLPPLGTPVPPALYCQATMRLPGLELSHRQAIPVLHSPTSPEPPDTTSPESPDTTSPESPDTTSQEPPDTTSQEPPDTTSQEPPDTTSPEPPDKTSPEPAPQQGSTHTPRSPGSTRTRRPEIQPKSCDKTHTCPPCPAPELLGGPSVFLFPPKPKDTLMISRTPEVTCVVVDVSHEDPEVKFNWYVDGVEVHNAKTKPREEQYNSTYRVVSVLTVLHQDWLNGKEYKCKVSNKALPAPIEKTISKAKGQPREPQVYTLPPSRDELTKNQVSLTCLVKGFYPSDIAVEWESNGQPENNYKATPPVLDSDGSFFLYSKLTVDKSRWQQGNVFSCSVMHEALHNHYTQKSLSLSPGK
Fibronectin cell binding fragment (110 Kd, Europa Bioproducts Ltd, Cat. No. UBF4215-18), sequence (P02751 other isoform, or with tags, fused parts or gaps limits assumed): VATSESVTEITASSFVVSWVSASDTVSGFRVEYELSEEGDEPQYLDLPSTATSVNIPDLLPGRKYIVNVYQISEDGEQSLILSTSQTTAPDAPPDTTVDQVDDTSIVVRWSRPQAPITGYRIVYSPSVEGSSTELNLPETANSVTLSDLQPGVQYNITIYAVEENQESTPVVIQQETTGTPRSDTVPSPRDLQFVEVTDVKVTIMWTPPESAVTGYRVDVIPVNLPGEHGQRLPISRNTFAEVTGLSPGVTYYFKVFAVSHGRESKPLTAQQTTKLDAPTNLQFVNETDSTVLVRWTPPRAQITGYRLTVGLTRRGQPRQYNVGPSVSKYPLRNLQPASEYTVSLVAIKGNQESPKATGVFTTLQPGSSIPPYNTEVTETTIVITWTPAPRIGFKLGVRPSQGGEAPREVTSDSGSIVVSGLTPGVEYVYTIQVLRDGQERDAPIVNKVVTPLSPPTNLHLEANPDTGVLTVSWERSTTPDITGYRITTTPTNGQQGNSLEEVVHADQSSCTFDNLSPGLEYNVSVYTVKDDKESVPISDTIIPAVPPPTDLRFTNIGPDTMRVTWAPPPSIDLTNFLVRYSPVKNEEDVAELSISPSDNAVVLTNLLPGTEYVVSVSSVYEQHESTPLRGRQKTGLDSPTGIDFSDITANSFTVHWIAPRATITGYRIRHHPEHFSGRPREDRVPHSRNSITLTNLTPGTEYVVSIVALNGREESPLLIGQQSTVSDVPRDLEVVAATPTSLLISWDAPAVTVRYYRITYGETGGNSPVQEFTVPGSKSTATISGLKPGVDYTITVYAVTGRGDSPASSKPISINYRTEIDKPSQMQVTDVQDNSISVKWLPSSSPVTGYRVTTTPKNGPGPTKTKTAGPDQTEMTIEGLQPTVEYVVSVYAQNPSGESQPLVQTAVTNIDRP

B1: anti-MAdCAM monoclonal antibody 7.26.4 (antibody, human IgG2, kappa, V domains shown)
VH: QVQLVQSGAEVKKPGASVKVSCEASGYTFTSYGIDWVRQAPGQGLEWMGWISVYSGNTNYAQKLQGRVTMSTDTSTSTAYMELRSLRSDDTAVYYCAREGSSSSGDYYYGMDVWGQGTTVTVSS
VL: DIVMTQTPLSLSVTPGQPASISCKSNQSLLYSDGKTYLFWYLQKPGQPPQLLIYEVSNRFSGVPDRFSGSGSGTDFTLKISRVEAEDVGVYYCMQSIQLPWTFGQGTKVEIKR
notes: fully human IgG2 kappa from hybridoma; signal peptide left out; kappa chain glycosylation confirmed
Regarding B1, the IC50 is 0.021 µg/mL in assay [1] and less than 0.1 µg/mL in assay [2]. In addition, the “inhibition of adhesion of α4β1+/α5β1+ Jurkat T-cells to coated Fibronectin cell binding fragment” value in assay [3] was more than 100 fold. Besides, in assay [4], the “inhibition of adhesion of α4β1+/α5β1+ Jurkat T-cells to coated VCAM” value is more than 100 fold.

B2: anti-MAdCAM monoclonal antibody 9.8.2 (antibody, human IgG4, kappa, V domains shown)
VH: QVQLVESGGGVVQPGRSLRLSCAASGFTFSSYGMHWVRQAPGKGLEWVAVIWYDGSNEYYADSVKGRFTISRDNSKNTLYLQMNSLRAEDTAVYYCARGAYHFAYWGQGTLVTVSS
VL: DIQMTQSPSSLSASVGDRVTITCQASQDISNYLNWYQQKPGKAPKLLIYDASNLETGVPSRFSGSGSGTDFTFTISSLQPEDIATYSCQHSDNLSITFGQGTRLEIKR
notes: fully human IgG4 kappa from hybridoma; signal peptide left out; kappa chain stained positive for glycosylation
With B2, the IC50 in assay [2] was less than 0.1 µg/mL. Moreover, the “inhibition of adhesion of α4β1+/α5β1+ Jurkat T-cells to coated Fibronectin cell binding fragment” value in assay [3] was more than 100 fold. For the same molecule, the “inhibition of adhesion of α4β1+/α5β1+ Jurkat T-cells to coated VCAM” value in assay [4] was more than 100 fold.

A word on the IC50: it is the point on the concentration scale where inhibition reaches its midpoint.
